Reference: patent US20220048967A1 (published 2022)
Where a chain is given by its changes, count along the chain named.

B1: Example 2 (peptide)
peptide: YXEGTXTSDYSIXLDXKAQXEFIXYLIEGGPSSGAPPPS
modifications: Aib2; αMeF(2F)6; αMeL13; Orn16; K17((2-[2-(2-Amino-ethoxy)-ethoxy]-acetyl)2-(γ-Glu)-CO-(CH2)16-CO2H); Aib20; D-Glu24; C-terminal amide
B2: Example 5 (peptide)
peptide: B1 peptide with Y10V, Y25X
modifications: Aib2; αMeF(2F)6; αMeL13; Orn16; K17((2-[2-(2-Amino-ethoxy)-ethoxy]-acetyl)2-(γ-Glu)-CO-(CH2)16-CO2H); Aib20; D-Glu24; αMeY25; C-terminal amide
B3: Example 1 (peptide)
peptide: B1 peptide with X16E
modifications: Aib2; αMeF(2F)6; αMeL13; K17((2-[2-(2-Amino-ethoxy)-ethoxy]-acetyl)2-(γ-Glu)-CO-(CH2)18-CO2H); Aib20; D-Glu24; C-terminal amide
B4: Example 3 (peptide)
peptide: B1 peptide
modifications: Aib2; αMeF(2F)6; αMeL13; Orn16; K17((2-[2-(2-Amino-ethoxy)-ethoxy]-acetyl)2-(γ-Glu)-CO-(CH2)18-CO2H); Aib20; D-Glu24; C-terminal amide
B5: Example 4 (peptide)
peptide: B1 peptide with Y10X, Y25X
modifications: Aib2; αMeF(2F)6; 4Pal10; αMeL13; Orn16; K17((2-[2-(2-Amino-ethoxy)-ethoxy]-acetyl)2-(γ-Glu)-CO-(CH2)16-CO2H); Aib20; D-Glu24; αMeY25; C-terminal amide
B6: Example 380 (peptide)
peptide: B1 peptide with Y1X, X6F, X24E, Y25X
modifications: D-Tyr1; Aib2; αMeL13; Orn16; K17 conjugated to (2-[2-(2-Amino-ethoxy)-ethoxy]-acetyl)2-(γ-Glu)-CO-(CH2)18-CO2H; Aib20; αMeY25; C-terminal amide
B7: Example 373 (peptide)
peptide: XXEGTFTSDYSIXLDKKAQXAFIEXLIAGGPSSGAPPPS
modifications: D-Tyr1; Aib2; αMeL13; K17 conjugated to (2-[2-(2-Amino-ethoxy)-ethoxy]-acetyl)-(γ-Glu)-CO-(CH2)18-CO2H; Aib20; αMeY25; C-terminal amide
B8: Example 375 (peptide)
peptide: B7 peptide with K16X, A21E
modifications: D-Tyr1; Aib2; αMeL13; Orn16; K17 conjugated to (2-[2-(2-Amino-ethoxy)-ethoxy]-acetyl)2-(γ-Glu)-CO-(CH2)16-CO2H; Aib20; αMeY25; C-terminal amide
B9: Example 376 (peptide)
peptide: B7 peptide
modifications: D-Tyr1; Aib2; αMeL13; K17 conjugated to (2-[2-(2-Amino-ethoxy)-ethoxy]-acetyl)2-(γ-Glu)-CO-(CH2)16-CO2H; Aib20; αMeY25; C-terminal amide
B10: Example 374 (peptide)
peptide: B7 peptide with A21E
modifications: D-Tyr1; Aib2; αMeL13; K17 conjugated to (2-[2-(2-Amino-ethoxy)-ethoxy]-acetyl)2-(γ-Glu)-CO-(CH2)16-CO2H; Aib20; αMeY25; C-terminal amide
B11: Example 377 (peptide)
peptide: B7 peptide with K16X
modifications: D-Tyr1; Aib2; αMeL13; Orn16; K17 conjugated to (2-[2-(2-Amino-ethoxy)-ethoxy]-acetyl)2-(γ-Glu)-CO-(CH2)16-CO2H; Aib20; αMeY25; C-terminal amide
B12: Example 379 (peptide)
peptide: B7 peptide with A21E, A28E
modifications: D-Tyr1; Aib2; αMeL13; K17 conjugated to (2-[2-(2-Amino-ethoxy)-ethoxy]-acetyl)2-(γ-Glu)-CO-(CH2)18-CO2H; Aib20; αMeY25; C-terminal amide
B13: Example 378 (peptide)
peptide: B7 peptide with A21E, X25Y
modifications: D-Tyr1; Aib2; αMeL13; K17 conjugated to (2-[2-(2-Amino-ethoxy)-ethoxy]-acetyl)-(γ-Glu)-CO-(CH2)18-CO2H; Aib20; C-terminal amide

The binders below were run against human glucagon receptor (human, UniProt P47871 26-477) (assay: cell-based or functional assay).
Chain of human glucagon receptor (P47871 26-477): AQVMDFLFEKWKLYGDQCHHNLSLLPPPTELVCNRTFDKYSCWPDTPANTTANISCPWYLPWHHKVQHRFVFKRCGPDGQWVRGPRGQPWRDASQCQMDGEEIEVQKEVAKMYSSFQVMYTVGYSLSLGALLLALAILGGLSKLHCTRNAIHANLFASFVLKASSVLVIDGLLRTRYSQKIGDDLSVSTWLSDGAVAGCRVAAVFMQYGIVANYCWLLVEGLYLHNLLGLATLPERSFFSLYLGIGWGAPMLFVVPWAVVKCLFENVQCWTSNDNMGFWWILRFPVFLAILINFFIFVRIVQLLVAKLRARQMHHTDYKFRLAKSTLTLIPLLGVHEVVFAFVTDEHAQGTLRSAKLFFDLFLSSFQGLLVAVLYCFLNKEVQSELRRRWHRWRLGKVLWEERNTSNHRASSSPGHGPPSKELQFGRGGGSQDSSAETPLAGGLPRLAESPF
With B1 the “cAMP EC50” value was over 10900 nM.
For B2, the “cAMP EC50” value was over 10900 nM.
With B3 the “cAMP EC50” value was over 11400 nM.
For B4, the “cAMP EC50” value was over 10900 nM.
With B5 the “cAMP EC50” value was over 10900 nM.

The binders below were run against T1, human GIP receptor (human, UniProt P48546 22-466) (assay: cell-based or functional assay).
T1 sequence (looked up): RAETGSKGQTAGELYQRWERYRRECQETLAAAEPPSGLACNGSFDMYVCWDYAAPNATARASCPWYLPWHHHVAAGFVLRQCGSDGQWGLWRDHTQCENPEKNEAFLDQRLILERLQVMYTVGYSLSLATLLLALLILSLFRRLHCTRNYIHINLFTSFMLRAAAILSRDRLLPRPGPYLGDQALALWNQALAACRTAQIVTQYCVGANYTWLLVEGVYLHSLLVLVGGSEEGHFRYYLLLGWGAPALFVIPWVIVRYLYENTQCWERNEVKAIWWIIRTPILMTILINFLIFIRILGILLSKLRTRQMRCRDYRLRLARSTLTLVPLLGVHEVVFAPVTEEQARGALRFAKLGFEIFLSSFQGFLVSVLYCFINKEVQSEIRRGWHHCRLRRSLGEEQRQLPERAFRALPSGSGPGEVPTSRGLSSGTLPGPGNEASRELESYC
For B1, the “cAMP EC50” value was 2.64 nM.
With B2 the “cAMP EC50” value was 1.98 nM.
In the case of B3, the “cAMP EC50” value is reported as 38.5 nM.
B4 was tested, and the “cAMP EC50” value was 9.24 nM.
In the case of B5, the “cAMP EC50” value is reported as 1.03 nM.

Each binder was assayed against human GLP-1 receptor (human, UniProt P43220 24-463) (assay: cell-based or functional assay).
B1 was tested, and the “cAMP EC50” value was 6.52 nM.
For B2, the “cAMP EC50” value was 1.61 nM.
With B3 the “cAMP EC50” value was 53.3 nM.
B4 was tested, and the “cAMP EC50” value was 19.4 nM.
B5 was tested, and the “cAMP EC50” value was 2.02 nM.

These binders were tested against T2, human gastric inhibitory peptide receptor (GIPR) (human, UniProt P48546 22-466) (assay: cell-based or functional assay).
T2 sequence (looked up): T1 sequence (looked up)
B6 was tested, and the “hGIPR cAMP EC50 ratio” value was 0.374 ratio and the “hGIPR cAMP Rel EC50” value was 0.142 nM.
In the case of B7, the “hGIPR cAMP EC50 ratio” value is reported as 0.287 ratio and the “hGIPR cAMP Rel EC50” value is reported as 0.185 nM.
B8 was tested, and the “hGIPR cAMP EC50 ratio” value was 1.13 ratio and the “hGIPR cAMP Rel EC50” value was 0.0471 nM.
With B9 the “hGIPR cAMP EC50 ratio” value was 0.734 ratio and the “hGIPR cAMP Rel EC50” value was 0.0723 nM.
In the case of B10, the “hGIPR cAMP EC50 ratio” value is reported as 1.76 ratio and the “hGIPR cAMP Rel EC50” value is reported as 0.0468 nM.
B11 was tested, and the “hGIPR cAMP EC50 ratio” value was 0.976 ratio and the “hGIPR cAMP Rel EC50” value was 0.0544 nM.
With B12 the “hGIPR cAMP EC50 ratio” value was 0.672 ratio and the “hGIPR cAMP Rel EC50” value was 0.079 nM.
B13 was tested, and the “hGIPR cAMP EC50 ratio” value was 0.793 ratio and the “hGIPR cAMP Rel EC50” value was 0.067 nM.

What follows are binders tested against human GLP-1 receptor (GLP-1R) (human, UniProt P43220 24-463) (assay: cell-based or functional assay).
For B6, the “hGLP1R cAMP EC50 ratio” value was 0.115 ratio and the “hGLP1R cAMP Rel EC50” value was 0.236 nM.
B7 was tested, and the “hGLP1R cAMP EC50 ratio” value was 0.0621 ratio and the “hGLP1R cAMP Rel EC50” value was 0.436 nM.
For B8, the “hGLP1R cAMP EC50 ratio” value was 0.178 ratio and the “hGLP1R cAMP Rel EC50” value was 0.152 nM.
B9 was tested, and the “hGLP1R cAMP EC50 ratio” value was 0.159 ratio and the “hGLP1R cAMP Rel EC50” value was 0.17 nM.
B10 was tested, and the “hGLP1R cAMP EC50 ratio” value was 0.169 ratio and the “hGLP1R cAMP Rel EC50” value was 0.19 nM.
In the case of B11, the “hGLP1R cAMP EC50 ratio” value is reported as 0.199 ratio and the “hGLP1R cAMP Rel EC50” value is reported as 0.136 nM.
With B12 the “hGLP1R cAMP EC50 ratio” value was 0.114 ratio and the “hGLP1R cAMP Rel EC50” value was 0.238 nM.
B13 was tested, and the “hGLP1R cAMP EC50 ratio” value was 0.142 ratio and the “hGLP1R cAMP Rel EC50” value was 0.191 nM.
